Experiment [1] has as its system carotid artery thrombosis. Nature of the experiment: Ferric chloride-induced mouse carotid artery thrombosis model. Type of experiment: in vivo. To be noted: compared to the control group. How it is done: (§1) C57BL/6 mice weighing from 20-25 g were used. Care and use of laboratory animals followed the national guidelines and were approved by the institutional animal care and ethics committees. Mice were anesthetized with isoflurane, following an intra-peritoneal injection with ketamine (100 mg/kg BW) and xylazine (20 mg/kg BW). The body core temperature was monitored with a digital thermometer, and controlled at either 28° C. or 37° C. with a thermal pad (Temperature Controller TR-200, Fine Science Tools Inc.). Reducing the body temperature to 28° C. was achieved by a gradual drop, at a rate of 0.3-0.4° C./min. The mice on the thermal pad were placed under a dissecting microscope (SZ61, Olympus). An incision of the skin was made directly on the top of trachea, and vessels used for experiment were bluntly isolated from surrounding tissues. […] After rinsing with normal saline, a nano-Doppler flow probe (0.5 VB, Transonic) was then positioned over the vessel and the blood flow rate (ml/min) was measured by a transit-time perivascular flow-meter (TS420, Transonic Systems Inc.). […] Jugular vein blood flow was recorded 15 minutes after induction of injury in mice pre-treated with EMP-scFv, eptifibatide or saline. The blood flow recorded at 1 minute was considered as the initial blood flow rate. […]

Experiment [2] has as its target T1, GPIIb/IIIa on human platelets (Homo sapiens, UniProt P05106+P08514).
T1 construct: endogenous in cells
Nature of the experiment: Flow cytometry: binding to human platelets. Particulars: for binding to human activated platelets: 20 μM ADP. The method, then: (§2) Human blood was collected by venipuncture with a 21-gauge butterfly needle from healthy volunteers and anticoagulated with citric acid. Platelet-rich plasma (PRP) was obtained by centrifugation (GS-6R centrifuge, Beckman Coulter) at 100×g at room temperature for 10 min.
(§3) Human PRP was diluted 1/50 in modified Tyrode's buffer containing 2 mM MgCl2 and 2 mM CaCl2. Platelets were either activated by addition of 20 μM ADP, or non activated, followed by the incubation with 15 and 50 μg/mL EMP-scFv fusion protein or EMP at 22° C., 32° C. and at 37° C. for 15 min. Mouse platelets were either pre-activated for 10 min by addition of 0.1 U/mL thrombin (Enzyme Research Laboratories), or non activated, before the incubation with 15 and 50 μg/mL of EMP-scFv fusion protein at 22° C., 32° C. or 37° C. for 15 min. In both, human and mouse samples, EMP-scFv was detected via 15 min in-dark incubation with secondary antibody (Penta-His Alexa Fluor 488, Qiagen) directed against the His(6)-tag of the single-chain antibody.
In re-warming experiments, activated and non-activated diluted human PRP was incubated with 15 and 50 μg/mL of EMP-scFv for 15 minutes at 22° C., followed by a 15-min in dark incubation with secondary Penta-His Alexa Fluor 488 antibody. Half of the reaction was then fixed with 1× Cell FIX, while the other half was incubated at 37° C. for either 15 or 30 minutes, before being fixed and measured in FACS.
On the technique in general: A flow cytometer gives signals particle by particle.

Experiment [3] concerns jugular venous thrombosis. Nature of the experiment: Model of jugular venous thrombosis. The format is in vivo, mouse. Particulars: 28° C., 15 minutes after the injury, vs control group and 37° C. How it is done: as §1
The target in experiment [4] is T1, GPIIb/IIIa on human platelets. In words: Flow cytometry: inhibition of fibrinogen binding to human platelets. The format is cell-based. The method, then: as §2, §3
Fibrinogen binding to human activated platelets in the presence of EMP-scFv was determined with a polyclonal rabbit anti-human fibrinogen FITC-labelled antibody (DakoCytomation), while the effects of EMP-scFv on fibrinogen binding to mouse platelets were determined using FITC-conjugated rabbit anti-fibrinogen polyclonal antibody (Cemfret). Fluorescence detection was performed as described above. Samples were measured in a FACSCalibur® flow cytometer (Becton Dickinson), after fixation with 1× CellFIX® (Becton Dickinson).

B1: EMP-scFv: fusion of elastin mimetic polypeptide (EMP) and activation-specific GPIIb/IIIa-blocking single-chain antibody; 704 amino acids, approximately 70 kDa (protein)
chain: MAVPAVGIPAVGIPAVGIPAVGIPAVGIPAVGIPAVGIPAVGIPAVGIPAVGIPAVGIPAVGIPAVGIPAVGIPAVGIPAVGIPAVGIPAVGIPAVGIPAVGIPAVGIPAVGIPAVGIPAVGIPAVGIPAVGIPAVGIPAVGIPAVGIPAVGIPAVGIPAVGIPAVGIPAVGIPAVGIPAVGIPAVGIPAVGIPAVGIPAVGIPAVGIPAVGIPAVGIPAVGIPAVGIPAVGIPAVGIPAVGIPAVGIPAVGIPAVGIPAVGIPAVGIPAVGIPAVGIPAVGIPAVGIPAVGIPAVGIPAVGIPAVGIPAVGIPAVGIPAVGIPAVGIPAVGIPAVGIPAVGIPAVGIPAVGIPAVGIPAVGIPAVGIPAVGIPAVGIPAVGIPAVGIPAVGIPAVGIPAVGIPGGGGSMMAEVQLVESGGGLVQPGGSLRLSCAASGFMFSRYAMSWVRQAPGKGPEWVSGISGSGGSTYYADSVKGRFTVSRDNSKNTLYLQMNSLRAEDTAVYYCARIFTHRSRGDVPDQTSFDYWGQGTLVTVSSGSASAPKLEEGEFSEARVSSELTQDPAVSVALGQTVRITCQGDSLRNFYASWYQQKPGQAPTLVIYGLSKRPSGIPDRFSASSSGNTASLTITGAQAEDEADYYCLLYYGGGQQGVFGGGTKLTVLRQPKAAPSVTLFPPSSAAAGSEQKLISEEDLNSHHHHHH
B1: the results for the occlusion time entry in experiment [1] (28° C.) and in experiment [1] (37° C.) were “significantly prolonged” and “remained unchanged”, respectively. For the same molecule, the “binding to human activated platelets” value in experiment [2] (22° C.) is listed as “significantly higher level”; in experiment [2] (37° C.), “totally abolished”. Further, the “dissociation from GPIIb/IIIa upon re-warming” value in experiment [2] (bound to activated platelets at 22° C., then temperature increased to 37° C.) was “did not dissociate”. For the same molecule, the “binding to resting platelets” value in experiment [2] (human, regardless of the temperature) is on record as “No binding”. For the same molecule, in experiment [3], the “percentage of initial blood flow” value was “significantly higher levels of blood flow”. Further, the “fibrinogen binding to human activated platelets” value in experiment [4] (22° C., concentration-dependent) is recorded as “significantly reduced”; in experiment [4] (32° C.), “inhibit the binding of fibrinogen”; in experiment [4] (37° C.) it was “not inhibited”.

The record behind these values is patent US9035028B2, “Temperature sensitive conjugate compositions” (Emory University, priority 2010, dated 2015).
